± gives the half width of the 95% confidence interval.
Tests used:
[1] = folding stability dG unfold from trypsin proteolysis; higher = more stable
Outline: (§1)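 Digests were run with trypsin and chymotrypsin at 11 concentrations in threefold dilutions, plus a no-protease condition, on designed mini-proteins in a PA-tagged cDNA display construct. The mini-proteins were under 80 residues, had no cysteine, and were kept only when AlphaFold2 dimer inter-PAE was above 15. After sequencing, Bayesian fitting of the counts gave K50, from which unfolding free energy was derived against a sequence-predicted unfolded-state K50 and a shared folded-state K50, per protease or combined.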

[2] = folding stability dG unfold (combined trypsin and chymotrypsin); higher = more stable
Outline: as §1

[3] = folding stability dG unfold from chymotrypsin proteolysis; higher = more stable
Outline: as §1

SAGGSAGGSPWRRIPISSPEQILDWLEEMLPPGFNLTPEMAEQMVDYFLKNFEVDPNGYLWVRSAGGSAGGS [r12_983_TrROS]
folding stability dG unfold [1]: 2.11 ± 0.051 kcal/mol
folding stability dG unfold [2]: 1.89 ± 0.14 kcal/mol
folding stability dG unfold [3]: 1.82 ± 0.21 kcal/mol

SAGGSAGGSAEEKVFVKLYLNPNEPPTIDLEFFFEDGRVVRLRLDLATGTLNDIDPRPLDFSAGGSAGGSAG [r3_299_TrMRF]
folding stability dG unfold [1]: 2.74 ± 0.082 kcal/mol
folding stability dG unfold [2]: 2.8 ± 0.12 kcal/mol
folding stability dG unfold [3]: 2.97 ± 0.046 kcal/mol

SAGGMTITVTKKTKPEDVEKLVEEIKEELEKKGYNVKKIEVTYKVVKDPNSSNEIVELTLTIEVEKPSAGGS [r8_475_JUSTAS]
folding stability dG unfold [1]: 4.55 ± 0.89 kcal/mol
folding stability dG unfold [2]: 5.28 ± 0.31 kcal/mol
folding stability dG unfold [3]: 5.03 ± 0.21 kcal/mol

SAGGTMIELKSASGKTALLPLPPGTERVEREGDKWTIYLPPEYTLTVEITAPVPPSSLFDLKVLSRKLSAGG [r19_274_JUSTAS]
folding stability dG unfold [1]: 0.595 ± 0.077 kcal/mol
folding stability dG unfold [2]: 0.734 ± 0.31 kcal/mol
folding stability dG unfold [3]: 0.509 ± 0.35 kcal/mol

SAGGAHEMEWKHEYELPPYRLKVELEWYYDPDGNPQPSIETIEIRPVPPPTIDAEDLPPEQAKENGIASAGG [r13_964_TrROS]
folding stability dG unfold [1]: 1.13 ± 0.11 kcal/mol
folding stability dG unfold [2]: 1.08 ± 0.38 kcal/mol
folding stability dG unfold [3]: 1.23 ± 0.087 kcal/mol

SAGMPYIKVKITVIHPDNKEKEAEFVFDLKDGKIDLKPEVIEKALEELGIPKDYEIKIEIVEIKEPDESAGG [r19_287_TrMRF]
folding stability dG unfold [1]: 2.5 ± 0.13 kcal/mol
folding stability dG unfold [2]: 2.81 ± 0.16 kcal/mol
folding stability dG unfold [3]: 2.82 ± 0.16 kcal/mol

SAGGKVVPILIEGELTAEEIKALIPPGELAVLYDLETGEVRVFSPEDLDKIPSDVPLRFLLLIFRPDSAGGS [r8_66_TrMRF]
folding stability dG unfold [1]: 2.93 ± 0.051 kcal/mol
folding stability dG unfold [2]: 3.92 ± 0.11 kcal/mol
folding stability dG unfold [3]: 4.31 ± 0.058 kcal/mol

SAGMKIEVKKKKDGKLEVEIEVKTKDGRTIRVKIYYDKKTKKFYIVEIEAESEEEKKKAEELLKKLLKSSAG [r5_266_TrROS_Hall]
folding stability dG unfold [1]: 2.83 ± 0.14 kcal/mol
folding stability dG unfold [2]: 3.42 ± 0.12 kcal/mol
folding stability dG unfold [3]: 3.62 ± 0.045 kcal/mol

SAGGSAGGSAGMTAKIVERRVLPGDGYLLLVEHPDGSRSAIVVPPELLENLDISDTVEFDSAGGSAGGSAGG [r11_943_TrMRF]
folding stability dG unfold [1]: 0.576 ± 0.038 kcal/mol
folding stability dG unfold [2]: 0.598 ± 0.064 kcal/mol
folding stability dG unfold [3]: 0.591 ± 0.026 kcal/mol

SAGGSAGGSAGGSMYTAEPSVVLLPDGTLRTVTRYTFPDGSVTSETATSPLSPDDPALLSAGGSAGGSAGGS [r4_144_JUSTAS]
folding stability dG unfold [1]: -0.0533 ± 0.1 kcal/mol
folding stability dG unfold [2]: 0.637 ± 0.087 kcal/mol
folding stability dG unfold [3]: 0.949 ± 0.099 kcal/mol

SAGGSAGGMIEVYEEGDKLTVLNPGPDPNKKVTVTLDNGSATSSRIPEGTYVTTATVAPDATLKSAGGSAGG [r6_70_JUSTAS]
folding stability dG unfold [1]: 0.14 ± 0.028 kcal/mol
folding stability dG unfold [2]: -0.169 ± 0.099 kcal/mol
folding stability dG unfold [3]: -1.06 ± 0.36 kcal/mol

SAGGMKIKIKIKPGQVILIKIRNKETGEEKTILVEVKEDQEITIELPEGYEIVDIKIVPLEDLPEEELSAGG [r13_119_TrROS_Hall]
folding stability dG unfold [1]: 3.94 ± 0.3 kcal/mol
folding stability dG unfold [2]: 4.05 ± 0.23 kcal/mol
folding stability dG unfold [3]: 3.96 ± 0.17 kcal/mol

SAGGSAGGSKKKVKVKKFEKTKDADGNEVVKVFFEDDGKVVTLPEELADKLKEDDEFDLEDLASAGGSAGGS [r20_3_TrMRF]
folding stability dG unfold [1]: -0.314 ± 0.077 kcal/mol
folding stability dG unfold [2]: 0.139 ± 0.1 kcal/mol
folding stability dG unfold [3]: 0.381 ± 0.053 kcal/mol

SAGGSAGGSASIEITVKTKEEAKALAEALAKAGLVEVETLPDGSVKITVKPVKVEEVLKPPESAGGSAGGSA [r18_126_TrROS_Hall]
folding stability dG unfold [1]: 1.66 ± 0.096 kcal/mol
folding stability dG unfold [2]: 2.17 ± 0.29 kcal/mol
folding stability dG unfold [3]: 2.61 ± 0.22 kcal/mol

SAGGSAGGSAMETYEIEVNGKLITITRSEDGTYKITDKDTGKTITIPAEDLKKLKPGDKLLSAGGSAGGSAG [r3_256_TrROS_Hall]
folding stability dG unfold [1]: 1.79 ± 0.078 kcal/mol
folding stability dG unfold [2]: 2.15 ± 0.14 kcal/mol
folding stability dG unfold [3]: 2.18 ± 0.036 kcal/mol

SAGGSAGGMPTLVVLREVAEKLEEGQRVRVRFRIPGTDEWVEAEVPINDPELVINFENPEVEEASAGGSAGG [r6_401_TrMRF]
folding stability dG unfold [1]: 1.06 ± 0.042 kcal/mol
folding stability dG unfold [2]: 1.33 ± 0.12 kcal/mol
folding stability dG unfold [3]: 1.48 ± 0.097 kcal/mol

SAGGSAGGSAGMTIKVYDPKTGEKILEIEIDPSLTPEQLKALADELRKKLPPGARIEIVPSAGGSAGGSAGG [r11_1081_TrROS_Hall]
folding stability dG unfold [1]: 4.56 ± 0.2 kcal/mol
folding stability dG unfold [2]: 4.38 ± 0.13 kcal/mol
folding stability dG unfold [3]: 3.72 ± 0.088 kcal/mol

SAGTLEEALEDPSNETVEIEIEIPTGEYPLSDPEKVEELAEEKKKEIEKKLKEKGKNVKIIFKVSLKPLSAG [r5_408_JUSTAS]
folding stability dG unfold [1]: 0.366 ± 0.07 kcal/mol
folding stability dG unfold [2]: 0.447 ± 0.16 kcal/mol
folding stability dG unfold [3]: 0.213 ± 0.15 kcal/mol

SAGGSAPVVRVEIVVLGTGEVRTLTLEEAKRFLEAHPDKIDRVLVRVEVFEPDASTSDDVDPDGVPSAGGSA [r15_99_TrMRF]
folding stability dG unfold [1]: 2.03 ± 0.034 kcal/mol
folding stability dG unfold [2]: 2.04 ± 0.07 kcal/mol
folding stability dG unfold [3]: 1.97 ± 0.021 kcal/mol

SAGGSAGGSMNTTTTPTAVPAGATLTVTVTSSSKSYSVPPAGPVTVTTTSGSSGTTVTVDVVASAGGSAGGS [r12_919_JUSTAS]
folding stability dG unfold [1]: 0.314 ± 0.022 kcal/mol
folding stability dG unfold [2]: 0.53 ± 0.043 kcal/mol
folding stability dG unfold [3]: 0.618 ± 0.051 kcal/mol

SAGGAKELFEAIPGAEAEYDPETGTLRVRFEFPDYTVLVEIPTDKETGEVLGVRVYVIDKDGVPHEIDLSAG [r5_367_TrMRF]
folding stability dG unfold [1]: 3.26 ± 0.24 kcal/mol
folding stability dG unfold [2]: 4.52 ± 0.23 kcal/mol
folding stability dG unfold [3]: 4.81 ± 0.15 kcal/mol

SAGGMEVTLRITAEGPEQLEKIQEILDELDVEEVNPTENEVEFRFPGPEPLAKLKEIAEELGLKVEGSAGGS [r16_88_TrMRF]
folding stability dG unfold [1]: -0.457 ± 0.23 kcal/mol
folding stability dG unfold [2]: -0.377 ± 0.25 kcal/mol
folding stability dG unfold [3]: -0.635 ± 0.28 kcal/mol

SMPLKVTVEVYEPGGNPLGSKTYEVEPGETLTFTFPRPVKGRVTITDPNADNPQTVTGDPATGTLTFPLVSA [r9_272_JUSTAS]
folding stability dG unfold [1]: 0.587 ± 0.056 kcal/mol
folding stability dG unfold [2]: 0.858 ± 0.069 kcal/mol
folding stability dG unfold [3]: 0.909 ± 0.086 kcal/mol

SAGGSAGGSAGMEPVYLLVKRTNPATGGREEALLAVPAEDLDAVREALEALPGVEEIEEISAGGSAGGSAGG [r17_438_TrMRF]
folding stability dG unfold [1]: 0.283 ± 0.05 kcal/mol
folding stability dG unfold [2]: 0.886 ± 0.079 kcal/mol
folding stability dG unfold [3]: 1.18 ± 0.079 kcal/mol

SAGGMIPPEELAARAEAVREAAPASGEVVRTTVVLPSPGLVTRVDLVYEPGAGRITVESVSEVPPELLSAGG [r13_37_JUSTAS]
folding stability dG unfold [1]: 0.496 ± 0.027 kcal/mol
folding stability dG unfold [2]: 0.461 ± 0.046 kcal/mol
folding stability dG unfold [3]: 0.414 ± 0.032 kcal/mol

SAGGSAPGVITFMLPLDDIPPDPDGKWTHNEIKDHIRPFIQEAFGKDDIEIDVSPHPNGWVRITIRSAGGSA [r15_562_TrROS]
folding stability dG unfold [1]: 2.41 ± 0.074 kcal/mol
folding stability dG unfold [2]: 2.69 ± 0.079 kcal/mol
folding stability dG unfold [3]: 2.76 ± 0.056 kcal/mol

SAGGSAETIEIEIKVKTEEEREKLKEALKKIPSIKEVKELPDGTIKITVSKENLDKIKEALKKAGVSAGGSA [r15_834_TrROS_Hall]
folding stability dG unfold [1]: 3.37 ± 0.34 kcal/mol
folding stability dG unfold [2]: 3.31 ± 0.65 kcal/mol
folding stability dG unfold [3]: 2.25 ± 0.24 kcal/mol

SAGGSAGGMLRIKTKDGKEIEITDDEVRIRFADGKKTVTVPAEKLKEALEAAEKAGMEIVEIEPSAGGSAGG [r6_337_TrROS_Hall]
folding stability dG unfold [1]: 0.00945 ± 0.21 kcal/mol
folding stability dG unfold [2]: 1.44 ± 0.16 kcal/mol
folding stability dG unfold [3]: 1.9 ± 0.057 kcal/mol

SAGPVVEVKPLETQALPDGSVRVVAEVTIKDPNSEKTTVVTVEATARVAPDGRPVSIEEIVEKAIKELKSAG [r5_604_JUSTAS]
folding stability dG unfold [1]: 0.801 ± 0.043 kcal/mol
folding stability dG unfold [2]: 1.06 ± 0.057 kcal/mol
folding stability dG unfold [3]: 1.26 ± 0.046 kcal/mol

SAGGAEEKIREIAEKLGVKEVLSADEAEKLPPEYPKRIAVVPRPDGSVLVIVRLENGEVLVIEFPVDSAGGS [r16_686_TrMRF]
folding stability dG unfold [1]: 1.45 ± 0.044 kcal/mol
folding stability dG unfold [2]: 2.15 ± 0.086 kcal/mol
folding stability dG unfold [3]: 2.49 ± 0.035 kcal/mol

SAGGSEFPLRITDIHILGGYIVITFQVPPGLDKLEIKIKIELGGKPIEVTMEYTPGNGYMTMIIRLSAGGSA [r2_261_TrROS]
folding stability dG unfold [1]: 4.46 ± 0.21 kcal/mol
folding stability dG unfold [2]: 5.57 ± 0.31 kcal/mol
folding stability dG unfold [3]: 5.52 ± 0.14 kcal/mol
